Measured values as given in patent publication CN112409479A (INST FOR VIRAL DISEASE CONTROL AND PREVENTION CHINESE …, dated 2021).

Biological target: T1, 新型冠状病毒S1蛋白 (纯化) (SARS-CoV-2, UniProt P0DTC2 14-685)
T1 construct: domain: S1
Test: ELISA, purified IgG on coated S1 protein

B1: 人源抗新冠病毒中和性抗体nCoV-121 全抗体IgG (antibody)
light: NFMLTQPHSVSESPGKTVTISCTRSSGSIASNYVQWYQQRPGSSPTTVIYEDNQRPSGVPDRFSGSIDSSSNSASLTISGLKTEDEADYYCQSYDSSNQWVFGGGTKLTVLGQPKAAPSVTLGQPKAAPSVTLFPPSSEELQANKATLVCLISDFYPGAVTVAWKADSSPVKAGVETTTPSKQSNNKYAASSYLSLTPEQWKSHRSYSCQVTHEGSTVEKTVAPTECS
heavy: not shown
dilution still ELISA-positive: ≥ 64000 fold dilution from 0.2mg/ml
